Assay: soluble on expression in E. coli; label from the status in PepcDB or PDB records

With “EQPFYRTKVKLKKEIVTLGVPGVDPNKQVGQYVEAKDWNALISDPEVLLIDTRNDYEVAIGTFEGAVDPKTRSFREFPEYIKAHYDPARHKKVAMFCTGGIRCEKASSYMLGAGFEEVFHLKGGILKYLEEVPQEQSLWRGDCFVFDNRVTVRHDLSEGEYDQCHA” as the sequence, how does the “soluble on expression in E. coli” value read?
The value was “not soluble”.

Which “soluble on expression in E. coli” value does the source give for “MVQNIPIYIQIHDKIKEDIEKGVWSIGDRLPSERELALKFDVSRMTLRQAIQTLADEGILERKIGSGTYVARKKVQETMTGTTSFTEITLSQNRVPSSRTVSYFVAKPSSSEMEKLQLGPEDSILRMERIRFADDIPICFEVASIPYSLVSQYGKSEITNSFYKTLEAKSGHKIGHSNQTISAVQASEQIAEYLEIKRGDAILRVRQVSYFENGLPFEYVRTQYAGSRFEFYLEK” here?
The value was “not soluble”.

With “MTPSKTTLVERCYKYIMSNEKNWSPYTVINRKSWVKNYIEPFFKDTKLIDINPVLIQTFINTTFNNCTFSSSKIRYRFISSVLKEAYRLREINENPCDFVKLPLEHHHHHH” as the sequence, how does the “soluble on expression in E. coli” value read?
Its value is “not soluble”.

With “MSLAGQIAIVTGASRGIGRGIALQLGEAGATVYITGRKPEESLNSKVGLSGLEATADEITKRGGKGIARFVDHQNMEEVKNFFEVVEKEHQGQLDILVNNAYQGVTAISENMGKPFYETDPYVWDTINNVGLRNHYFCTVYAARLMTARNKGLIVNVSSGGGLRYLFNVAYGVGKQALDRMSADTAVELRKKNVCVVSIWPGAVRTELVDKMFKDENGKPRPEIKNAEVFANGETVEYPGRAVVSLASDPRRMDKTGRILITEDLGKEYGFVDIDGLRPPNLRSVSFILKHLGWNTTANFVPTWVKLPGWLVWAGNSRL” as the sequence, how does the “soluble on expression in E. coli” value read?
Its value is “soluble”.

For “MGSDKIHHHHHHVKLHVIHYNDLHSHFDMWPRYMSFMKEHRTYDSLVFDLGDHADRVAPATEATQGKINTHLLNELSPTAVTIGNNEGITFPHDWLAELYSDATFPVLVSNLSAPFAKAGMIQELPTGKVGIFGLTAPYYELYELLGWSIENPFEAAAREIEALRDQVDVLICLSHLGFYQDEDLAERFPELDLIIGSHTHHVLDDGVVRNGVLIAQAGKHGQYAGEIYLNTDTGEKEAVLHPLESYPEDEATAVLLDKEQYLAERQMKQPIGRTSGLANDWFNPSPFTQLLADTMRDWCQADLACVPAGMLLGSLSPGPVSSYDLHRLCPHPINPCKVTMTGKELKQFIAEVDTNRFEQLKVRGLGFRGKLMGKMHYAGNRQHLDDAKHYTVVLPDMFTFGPLFPEIKEMPKEYFMPELLRDLLFDRLSEKSEFGELPIRKH”, which “soluble on expression in E. coli” value is on record?
Its value is “not soluble”.

With “MSLTQVIPTSLLQRLSLLFGCAGIVLGTAVANASSPASRDLFEIHVRPTLIKHCIQCHGETEQEGGLKLTSLDAMLAGGDSGPAIVPGNADDSLILEALRFESFEMPPAGQLDDPVVNGFASWIKAGAPWPEDLILTPMPIITEDDRDWWCYQPIADPVVPDVDDDSWCRNEIDRFVLDRLKQENLRPADEATASQLTRRLHFALTGLPPTCPPPSNQQNADSSADDWYEAQLNELLSSPAYGEHQARYWMDLVRYADSDGYNADHARPHAHLYRDYVIRSFNEDKPYDRFVCEQLAGDEIDPGNRDALIGTMYLRHWIYEWNQRDVEGQWQEIISDITETTADVFLAQGLKCARCHDHKFDPLLQRDFFALKAFFTPLLPREDFPVADVATREGHHHHHH” as the sequence, how does the “soluble on expression in E. coli” value read?
The value was “not soluble”.

Which “soluble on expression in E. coli” value does the source give for “GPLGSNIEQYIHDLDSNSFELDLQFSEDEKRLLLEKQAGGNPWHQFVENNLILKMGPVDKRKGLFARRRQLLLTEGPHLYYVDPVNKVLKGEIPWSQELRPEAKNFKTFFVHTPNRTYYLMDPSGNAHKWCRKIQEVWRQRYQSHPDAAVQ” here?
Its value is “soluble”.

With “MRITDVRTAVVEANYDWTFVRIYTDEGLTGLGESFLAPGLTGIIRDLKPLLVGQDPLDVDRLFSRMRWAASGAGSVAGLVYNAISGIEAALWDLAGKHYGVPVFRLLGGRHRDRVRVYADCHAGEALEALSSVMIPRRPRWLSPAGAPPPAGDPVHGRAFGLEEPGEAFTPEMYAARAREVAAMGFTALKFDLDVPNPHTLDPHSGTLTHAEIRHMVSLVEAVREAVGDGVDIAFDLHWRYNVSDAVRLACELEPYGLMWLEDPVPPENVEALRRVTRSTRTPIASGENLYLRHGFREALERGALDIAAPDLQKCGGLLEGRRIADMADAHYVAVAPHCIASPIGTVAAAHVAAAVPNFLALEWHGMSVPFWEEMAAGFDGPVIRDGYIEVPEAPGLGVELNEEVARRYAREGEPFF” as the sequence, how does the “soluble on expression in E. coli” value read?
The value was “soluble”.

Which “soluble on expression in E. coli” value does the source give for “MFSLRDAKCGQTVKVVKLHGTGALKRRIMDMGITRGCEIYIRKVAPLGDPIQINVRGYELSLRKSAAEMIEVE” here?
Its value is “not soluble”.

For “MGRIISSYIFPHPPLIVPEIGKGDEKGAIKTIEACEKAAEQIRKEKPSTIILTTSHAPLFEDYIFINDHKTLKGNFSRFGARKVELGFENNLKMVESIIEFAKKEGFDAGGISEGIGRRYGISGELDHGALVPLYYISRVYSDFKLVHVAMSTLTLEEHYKFGMCIGEAVRNSDEDVVFVASGDLAHRLTSDGPYGYNKHAPEFDELLVKSIEKDDIDRILDIDDKLRDEAAECGLRSFVIMLGALDGYSVVPEVYSYEGPFGVGYMVARIGVGAMDSSRRIIENRRNKRKKSTDPYVSLAKRALEAYVTEGRVLDDYSGLPEEMLNSRAGTFVSIKKKGELRGCIGTIGPTRKNIASEIVHNAISAGTSDPRFYPVKPYELDELEYSVDVLMEPEEINSMDELDVVKYGVIVRAGRRTGLLLPNLENVNTVEQQVSIALQKAGISPNEKYTMERFEVIRHK”, which “soluble on expression in E. coli” value is on record?
Its value is “not soluble”.

Which “soluble on expression in E. coli” value does the source give for “MSLKVTIKDIATICGVSAGTVDRALNNRTGISEKTREKILKTAKELNYRPDYTARSLVMGKTMTIGVVLFDLYNRSFAQLLNAIELKARELGYFIYITLSDKNPENELNCIEHLVNRKVDGIILFTVNKGEQFEANLSKWGIPIITIFNYVSEKWEYIGIQERQAMKEAVDYIASKRYKKFIYISPPLTYLGKNNIYTQEERLNGFYDGLKSNGITSKPLIIKNSEYIKELDNITFSQDGKVAIVCATDLYALEVMNYLKEKGFNIPEQVGVMGFDDIDMLKYITPRLTTVKYPIDEIGRRAIESMVNKINHGHFISTPLLNYQIIKGESIEGHHHHHH” here?
Its value is “soluble”.

Which “soluble on expression in E. coli” value does the source give for “EAVHRLDLILCNKTAYQEVFKPENISLRNKLRELCVKLMFLHPVDYGRKAEELLWRKVYYEVIQLIKTNKKHIHSRSTLECAYRTHLVAGIGFYQHLLLYIQSHYQLELQCCIDWTHVTDPLIGCKKPVSASGKEMDWAQMACHRCLVYLGDLSRYQNELAGVDTELLAERFYYQALSVAPQIGMPFNQLGTLAGSKYYNVEAMYCYLRCIQSEVSFEGAYGNLKRLYDKAAKMYHQLKKCETRKLSPGKKRCKDIKRLLVNFMYLQSLLQPKSSSVDSELTSLCQSVLEDFNLCLFYLPSSPNLSLASEDEEEYESGYAFLPDLLIFQMVIICLMCVHSLERAGSKQYSAAIAFTLALFSHLVNHVNIRLQAELEEGENPVPAFQSDGTDEPESKEPVEKEEEPDPEPPPVTPQVGEGRKSRKFSRLSCLRRRRHPPKVGDDSDLSEGFESDSSHDSARASEGSDSGSDKSLEGGGTAFDAETDSEMNSQESRSDLEDMEEEEGTRSPTLEPPRGRSEAPDSLNGPLGPSEASIASNLQAMSTQMFQTKRCFRLAPTFSNLLLQPTTNPHTSASHRPCVNGDVDKPSEPASEEGSESEGSESSGRSCRNERSIQEKLQVLMAEGLLPAVKVFLDWLRTNPDLIIVCAQSSQSLWNRLSVLLNLLPAAGELQESGLALCPEVQDLLEGCELPDLPSSLLLPEDMALRNLPPLRAAHRRFNFDTDRPLLSTLEESVVRICCIRSFGHFIARLQGSILQFNPEVGIFVSIAQSEQESLLQQAQAQFRMAQEEARRNRLMRDMAQLRLQLEVSQLEGSLQQPKAQSAMSPYLVPDTQALCHHLPVIRQLATSGRFIVIIPRTVIDGLDLLKKEHPGARDGIRYLEAEFKKGNRYIRCQKEVGKSFERHKLKRQDADAWTLYKILDSCKQLTLAQGAGEEDPSGMVTIITGLPLDNPSVLSGPMQAALQAAAHASVDIKNVLDFYKQWKEIG” here?
The value was “soluble”.

Which “soluble on expression in E. coli” value does the source give for “VFCAGHGVYWVAYDAGNLIKNGENTVEILTSTGEPGKKMDGRIYGTVLAAACENPKAPMVSYQLLTGNINLHGEGWSENIKEVNDRAEVNFSAGQALNNIDSANLSVVYLTGSKGLPDYIEFNGEIPGVPPQYLVEKCGENVRDIANEVSFDSSGDKGAASSYFDMEHIDVLNYLKADNSAVFVRGFDINGDGKIDDQEGEDYLHPVLAALVLTSKNTESVFPDLYPEIRVSEEELIDGKPVEISLTINNPGGICEENCTAVFLVDGNEISRVPIQMGAAGIHRSGILWSGIKGEHRLELFLD” here?
Its value is “not soluble”.

Source: the DeepSol protein solubility set
